Laboratory results as given in article PMC8048842, “A Cyanine‐Bridged Somatostatin Hybrid Probe for Multimodal SSTR2 Imaging in Vitro and in Vivo: Synthesis and Evaluation” (Chembiochem, 2021).
Like-named read-outs stand apart in the source and are kept apart here.

Assays:
in vivo = conditions: female, NMRI-Foxn1nu/Foxn1nu nude, mouse, iv, total radioactivity
BON‐SSTR2 cells [1] = test: Toxicity test, metabolic activity (AlamarBlue); format: cell-based, human; conditions: 96 h treatment, up to a concentration of 10 μM, quadruplicates, n=2 (Figure S2)
Method: (§1) Toxicity tests: BON‐SSTR2 cells were seeded in quadruplicates in 96 well plates at a density of 5,000 cells per well and grown overnight. […] Metabolic activity and cell number were determined after another 96 h. For this, 100 μL medium containing AlamarBlue™ redox indicator (ThermoFisher) were added on top of each well, incubated for 3–4 h and the resulting fluorescence was measured using an EnVision Multilabel Plate Reader (PerkinElmer). Afterwards, the supernatant was removed; cells were fixated with 4 % v/v formaldehyde for 10 min and stained with 1 μg/mL DAPI in PBS/0.1 % v/v Triton for another 10 min. Four fields per well were imaged using an IN Cell Analyzer 1000 (GE Healthcare) with a 4x objective and nuclei were counted by Investigator software (GE Healthcare). All values were normalized to the control treated with vehicle and analyzed using GraphPad Prism 5.04.

BON‐SSTR2 cells [2] = test: Toxicity test, cell number (DAPI nuclei counting); format: cell-based, human; conditions: 96 h treatment, up to a concentration of 10 μM, quadruplicates, n=2 (Figure S2)
Method: as §1

[3] = biological target: T1, ratSSTR2‐GFP fusion protein (Rattus norvegicus, UniProt P30680); test: Endocytosis / receptor internalization assay in RIN1038 cells; format: cell-based
T1 construct: expressed in transfected cells
Excerpt: Endocytosis assay: Rat insulinoma RIN1038 cells stably expressing a ratSSTR2‐GFP fusion protein almost exclusively show green cell membrane fluorescence in the resting state while in the presence of a functional agonist, the receptor‐GFP fusion protein is translocated to a perinuclear endocytic vesicle compartment. This shift is readily recognized by inspection of the fluorescent image and can be detected by software‐based quantitation algorithms. […] Mounted cells were imaged using a confocal laser‐scanning microscope (LSM510, Carl Zeiss) with a helium–neon laser at 488 and 543 nm, BP505‐525 and LP560 emission filters and a 63x NeoFluar oil immersion objective. […] For automated microscopy, microscopic fluorescence images were recorded by an IN Cell Analyzer 1000 (GE Healthcare) with 20x magnification at 5 frames per well in a 96 well format. Image processing was performed with In Cell Investigator software (GE Healthcare) applying the provided granularity algorithm. The output of the analysis was indicated as vesicle area/cell and was utilized for calculation of concentration‐response curves resulting in the determination of half‐maximal activity (EC50).

T1 sequence (P30680 whole entry, the tested form may be a part): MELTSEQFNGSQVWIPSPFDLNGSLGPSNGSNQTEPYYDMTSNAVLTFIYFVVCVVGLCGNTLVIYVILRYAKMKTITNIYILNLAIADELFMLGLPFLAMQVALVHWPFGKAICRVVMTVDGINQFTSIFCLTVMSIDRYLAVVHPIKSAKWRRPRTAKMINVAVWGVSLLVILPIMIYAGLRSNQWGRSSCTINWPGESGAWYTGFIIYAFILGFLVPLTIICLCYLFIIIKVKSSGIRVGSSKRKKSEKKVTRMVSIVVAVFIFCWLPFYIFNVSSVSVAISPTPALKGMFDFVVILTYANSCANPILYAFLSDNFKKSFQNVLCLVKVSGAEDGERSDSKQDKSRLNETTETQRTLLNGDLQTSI

Compound	tissue uptake at 1 h (in vivo; ex vivo biodistribution uptake in kidneys) [%ID/g]	tissue uptake at 1 h (in vivo; ex vivo biodistribution uptake in liver) [%ID/g]	inhibition of metabolism (AlamarBlue fluorescence, % control) (BON‐SSTR2 cells [1])	inhibition of proliferation (cell count, DAPI, % control) (BON‐SSTR2 cells [2])	EC50 ([3]; RIN1038-rSSTR2GFP, axis log DOTA-ICC-TATE [M], R square 0.9899, read-out: EC50 internalization as printed in Figure S2 D) [M]	cellular uptake: colocalization of ICC dye signal with internalized GFP‐fused SSTR2 ([3]; RIN1038 cells overexpressing SSTR2‐GFP, 1 μM conjugate, 30 min, 37 °C, confocal microscopy)	EC50 ([3]; RIN1038 ratSSTR2‐GFP cells, eleven concentrations 3 pM–300 nM, 30 min, 37 °C, quadruplicates, vesicle area/cell, read-out: EC50 of SSTR2‐GFP fusion protein internalization) [M]
C[C@@H](O)[C@H](NC(=O)[C@@H]1CSSC[C@H](NC(=O)[C@@H](Cc2ccccc2)NC(=O)c2ccc3c(c2)C(C)(C)/C(=C/C=C/C2=[N+](C)c4ccc(CNC(=O)CNC(=O)CN5CCN(CC(=O)O)CCN(CC(=O)O)CCN(CC(=O)O)CC5)cc4C2(C)C)N3CCCCS(=O)(=O)[O-])C(=O)N[C@@H](Cc2ccc(O)cc2)C(=O)N[C@H](Cc2c[nH]c3ccccc23)C(=O)N[C@@H](CCCCN)C(=O)N[C@@H]([C@@H](C)O)C(=O)N1)C(=O)O [^68Ga‐DOTA‐ICC‐TATE, metal not drawn]	~30	5					
C[C@@H](O)[C@H](NC(=O)[C@@H]1CSSC[C@H](NC(=O)[C@@H](Cc2ccccc2)NC(=O)c2ccc3c(c2)C(C)(C)/C(=C/C=C/C2=[N+](C)c4ccc(CNC(=O)CNC(=O)CN5CCN(CC(=O)O)CCN(CC(=O)O)CCN(CC(=O)O)CC5)cc4C2(C)C)N3CCCCS(=O)(=O)[O-])C(=O)N[C@@H](Cc2ccc(O)cc2)C(=O)N[C@H](Cc2c[nH]c3ccccc23)C(=O)N[C@@H](CCCCN)C(=O)N[C@@H]([C@@H](C)O)C(=O)N1)C(=O)O [DOTA‐ICC‐TATE]			does not inhibit	does not inhibit	4.21e-10	clearly colocalized	4.2e-10
